Experimental data from the nanobody polyreactivity screen of Harvey et al. (2022).

Assay: yeast display, Sf9 membrane polyspecificity reagent, FACS + sequencing; frameworks hold sequencing errors
Procedure, shortened: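 Galactose-induced (36–48 hours) yeast carrying a synthetic nanobody display library were exposed to 10% biotinylated, detergent-solubilized Sf9 membrane reagent at 4 °C for 1 hour. FACS followed streptavidin microbead enrichment, using low and high (top ~1%) gates for expression (anti-HA) and reagent binding (streptavidin). Colony PCR, MiSeq 2 × 250 sequencing and CDR-length filtering followed. Labels for polyreactivity reflect the gate of origin.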
In the case of “QVQLVESGGVLVQAGGSLRLSCAASGFIFETYVMGWYRQAPGKERELVDAISGGGSTYYADSVKGRFTISRDNAKKTVYLQMNSLKPEDTAVYYCAAKSGSFVHGGYQTPVYGSDYWGQGTQVTVSS”, the “polyreactivity (PSR sort gate)” value is reported as “high polyreactivity”. For “QVQLVESGGGLVQAGGSLRLSCAASGRIFSENAMGWYRQAPGKERELVAAITGNGGDTYYADSVKGRFTISRDNAKNTVYLQMNSLKPEDTAVYYCAAETGGLGGDYWGQGTQVTVSS”, the “polyreactivity (PSR sort gate)” value was “low polyreactivity”. In the case of “QVQLQESGGGLVQAGGSLRLSCAASGNIFDADIMGWYRQAPGKERELVASITDGGSTNYADSVKGRFTISRDNAKNSVYLQMNSLLPEDTAVYYCAAIAYPDIPTYFDYDSDYFYWGQGTQVTVSS”, the “polyreactivity (PSR sort gate)” value is reported as “high polyreactivity”. In the case of “QVQLEESGGGLVQAGGSLRLSCAASGSTVWANAMGWYRPAPGKERELVAAITSTGITYYADSVKGRFTISRDNAKNTVYLQMNSLTPEDTAVYYCAASFPGAGYGMDYWGQGTQVTVSS”, the “polyreactivity (PSR sort gate)” value is reported as “low polyreactivity”. For “QVQLVESGGGLVQAGGSLRLSCAASGSIFRWYAMGWYRQAPGKEREFVAAISWSGTSTYYADSVKGRFTISRDNAKNTVYLQMNSLKPEDTAVYYCNALLPSSRAPDYGYWGQGTQVTVSS”, the “polyreactivity (PSR sort gate)” value was “high polyreactivity”. For “QVQLVESGRGLVQAGGSLRLSCAASGFIFAYYAMGWYRQAPGKERELVAAITRSGGGTKYADSVKGRFTISRDNAKNTVYLHMNSLKPEDTAVYYCAARWYRQLRDLDYWGQGTQVTVSS”, the “polyreactivity (PSR sort gate)” value was “high polyreactivity”. With “QVQLVESGGGLVQAGGSLRLSCAASGFTFNYYAMGWYRQATGKERELVAAIDSGGNTYYADSVKGRFTISRDNAKNNVYLLLNSLKPEDTAVYYCDAYSDYQYDYWGQGTQVTVSS” the “polyreactivity (PSR sort gate)” value was “low polyreactivity”. In the case of “QVQLVESGGGLVQAGGSLRLSCAASGITFGRNTKGWYRQAPGKERELVAAIDSGGNTYADSVKGRFTISRDNAKNTVYLQMNSLKPEDTAVYYCNAGYVHSFDYWGQGTQVTVSS”, the “polyreactivity (PSR sort gate)” value is reported as “low polyreactivity”. For “QVQLVESGGGLVQAGGSLRLSCASSGSIFYPYAMGWYRPAPGKERELVAAISSGGTTYYADSVKGRFTISRDNAKNTVYLQMNSLKPEDTAVYYCAAGFYLRAVWMDYWGQGTQVTVSS”, the “polyreactivity (PSR sort gate)” value was “high polyreactivity”. In the case of “QVQLVESGGGLVQAGGSLRLSCAASGLTFTVNAMGWYRQAPGKERELVARIRNSGGRTYYADSVKGRFTISRDNAKNTVYLQMNSLKPEDTAVYYCAARRYYYQVGYDYWGQGTQVTVSS”, the “polyreactivity (PSR sort gate)” value is reported as “high polyreactivity”. In the case of “QVQLVESGGGIVQAGGSLSLRCAASGRIFITNAMGWNRQAPGKERELVAAIRRRGGNTYYADSVKGRFTISRDNGKNTVYLLMNSLKPEDSAVYYCAVYPRPYNYNYWGQGTQVTVSS”, the “polyreactivity (PSR sort gate)” value is reported as “high polyreactivity”. In the case of “QVQLVDSGGGLVQAGGSLRLSCAASGFIFPLYTMGWSRQAPGKERELVAAITGSGGSTYYADSVKGRFTISRDNEKNTVYLQMNSLKPEDSAVYYCAKDYTYGMDWGQGTQVTVSS”, the “polyreactivity (PSR sort gate)” value is reported as “low polyreactivity”. In the case of “QVQLVESGGGLVQAGGSLRLSCAASGSTFSANAMGWYRQAPGKERELVAAITYRGGNTYYADSVKGRFTISRDNAKNTVYLQMNSLKPEDTAVYYCNRDLRVRYRRLKYGYWGQGTQVTVSS”, the “polyreactivity (PSR sort gate)” value is reported as “low polyreactivity”. With “QVQLQESGGGLVQAGGSMRLSCAASGYFSNYYSLGLYRQAPGKERELVAGIGTGTSTYYADSVKGRFTISRDNAKNTVYQQMNSLKPEDTAVYYCAAPLDTSSRIFDYWGQGTQVTVSS” the “polyreactivity (PSR sort gate)” value was “low polyreactivity”. In the case of “QVQLVESGGGLVQAGGSLRLSCAASGGTFPYSAMGWYRQAPGKERELVAAISRSGARTYYADSVKGRFTISRDNAKNTVYLQMNSLKPEDTAVYYCATDNTYGYDYWGQGTQVTVSS”, the “polyreactivity (PSR sort gate)” value is reported as “high polyreactivity”. For “QVQLVESGGGLVQGGGSLRLSCAASGSTFWANAMGWYRQATGKERELVAGITWNAGSTYYADSVKGRFTISRDNAKNPVYLQMNRLKPEDTAVFYCAASYHFQGWGPGYNSWGQGTQVTVSS”, the “polyreactivity (PSR sort gate)” value was “low polyreactivity”. In the case of “QVQLVESGGGLVQAGGRLRLSCDASGSIFYYYTMGWYRQAPGKEREFVAAITWRGASTYYADSVKGRFTISRDNAKNTVDLKMNSLKPEDTAVDYCNARWRVPRYRYDYWGQGTQVTVSS”, the “polyreactivity (PSR sort gate)” value is reported as “high polyreactivity”. For “QDQLVESGGGLDQEGGSLRLSCAASGIFSYEAMGWNRQAPGKERELVATISRRGSSTYYADSVKGRFTISRDNAKNTVYLQMNSLKPEDSAVYYCAAVRYISPAFLPASSYELGYWGQGSQVTVSS”, the “polyreactivity (PSR sort gate)” value was “low polyreactivity”. With “QVQLVESGGGLVQAGGSLRLSCAASGITLFYSAMGWYRQAPGKERELVAAISWSGGSTYYADSVKGRFTISRDNAKNTVYLQMNSLKPEDTAVYYCAAGYIRFYRSREYWGQGTQVTVSS” the “polyreactivity (PSR sort gate)” value was “high polyreactivity”. For “QVQLVESGGGLVQAGGSLRLSCAASGLIFTDYAMGWYRQAPGKDRELVATITARGGDTYYADSVKGRFTISRDNAKNTVYLQMNSLKPEDTAVYYCAAEYLSGGEAGMYYWGQGTQVTVSS”, the “polyreactivity (PSR sort gate)” value was “low polyreactivity”. In the case of “QGQLVESGGGLVHAGVSLRLSCAASGSTFQPYAMGWNRQAPGKERELVAAINWSGGGTYYADSVKGRFTISRDNAKNTVYLQMNSLKPVDTAVYYCAAEVYTYWALNTWRYDYWGQGTQVTVSS”, the “polyreactivity (PSR sort gate)” value is reported as “high polyreactivity”.
